Laboratory results published in US20220411492A1 (QILU PHARMACEUTICAL, published 2022).
Where two headings read alike, the source gives them in different places.

B1: ch-299B2 (antibody, V domains shown)
VH: QVQLKQSGPELVRPGASVKLSCKTSGYIFTNYWIHWVKQRSGQGLEWVVRIYPGTGNTYYNEKFTGKATLTADKSSSTAYMQLSSLKYEDSAVYFCSREGYGKGNSMDYWGQGTSVTVSS
VL: DIVMTQSPSSLTVTAGEKVTMNCKSSQSLLNSGNQKNYLTWYQQKPGQPPKLLFYWASTRESGVPDRFTGSGSGTDFTLTISSVQAEDLAVYHCQNAYYYPYTFGGGTKLEMK
notes: also called chimeric antibody of clone 299B2
B2: ch-241F7 (antibody, V domains shown)
VH: EVQLQQSGPELEKPGASVKISCKASGYSFTAYNMNWVRQRNGKSLEWIGNIDPYYGGTNYNQKFKGKATLTVDKSSSTAYMQLKSLTSEDSAVYFCATVYYGNSLIYWGQGTLVTVSA
VL: DIVMTQSPSSLTVTAGEKVTMSCKSSQSLLNSGNQKNYLTWYQQKPGQPPKLLIYWASTRESGVPDRFTGTGSGTDFTLTISSVQAEDLAVYYCQNNYFYPLTFGAGTQLELK
notes: also called chimeric antibody of clone 241F7
B3: ch-251H11 (antibody, V domains shown)
VH: QVQLKQSGAELVRPGASVKLSCKTSGYTFTTFWIHWIKQRSGQGLEWIAKIYPGTGYTYYNEKFKGKATLTADKSSSAAYMQLSSLKSEDSAVYFCAREGYGKGNAVDFWGQGSSVTVSS
VL: DIVMTQSPSSLTVTAGEKVTMSCKSSQSLFNSGNQKNYLTWYQQKPGQPPKLLIYWASTRESGVPDRFTGSGSGTDFTLTIDSVQAEDLAVYYCQNDYTYPSTFGGGTNLEIK
notes: also called chimeric antibody of clone 251H11
B4: ch-287F12 (antibody, V domains shown)
VH: QIQLVQSGPELKRPGETVRISCKASGFTFTTAGMHWVQKMAGKGLKWLGWTNTHSGEPKYAEDFKGRFAFSLDTSGSDAYLQIGNLKYEDAATYFCAKWGRGNALDYWGQGTSVTVSS
VL: DIVMTQSPSSLTVTAGEKVTMTCKSSQSLLNSGNQKNYLTWYQQKPGQPPKLLIYWASTRESGVPDRFTGSGSGTDFTLTINTVQAEDLAVYYCQNTYSYPLTFGGGTKLELR
notes: also called chimeric antibody of clone 287F12
B5: ch-253C4 (antibody, V domains shown)
VH: QVQLKQSGAELVRPGASVSLSCKTSGYIFTSYWIHWVKQRSGQGLEWIGRFYPGTGTAYYNENFEGKATLTADRSSSTAYMQLSSLKSDDSAVYFCTREGYGKGNAMDYWGQGTSVTVSS
VL: DIVMTQSPSSLTVTTGEKVTLSCKSSQSLLNSGNQKNYLTWYQQKSGQPPELLIYWASTRESGVPDRFTGSGSGTDFTLTVSSVQAEDLAVYYCQNDYYFPFTFGGGTKLEIK
notes: also called chimeric antibody of clone 253C4
B6: hu299B2-S32A-1 (antibody, V domains shown)
VH: QVQLVQSGAEVKKPGASVKVSCKASGYIFTNYWIHWVRQAPGQGLEWMGRIYPGTGNTYYNEKFTGRVTMTRDTSTSTVYMELSSLRSEDTAVYYCAREGYGKGNSMDYWGQGTTVTVSS
VL: DIVMTQSPDSLAVSLGERATINCKSSQSLLNAGNQKNYLTWYQQKPGQPPKLLIYWASTRESGVPDRFSGSGSGTDFTLTISSLQAEDVAVYYCQNAYYYPYTFGGGTKLEIK
notes: also called humanized antibody hu299B2-S32A
B7: ch-59F9 (antibody, V domains shown)
VH: QVQLQQSGAELMKPGASVKLPCKASGYTLTGYWIEWLKQRPRHGLEWIGEILLGSGSIKYNVKFKDKATFTADTSSNTAYMQLNSLTTEDSAIYYCARKGLRGNSFDYWGQGTTLTVSS
VL: DIVMTQSPSSLTVTAGEKVTMSCKSSQSLLNSGNQKSYLTWYQQKPGQPPKRLIYWASTRESGVPDRFTGSGSGTDFTLTISSVQAEDLAVYYCQNDYYYPFTFGSGTKLEIK
notes: also called chimeric antibody of clone 59F9
B8: ch-299B2-G33A (antibody, V domains shown)
VH: QVQLKQSGPELVRPGASVKLSCKTSGYIFTNYWIHWVKQRSGQGLEWVVRIYPGTGNTYYNEKFTGKATLTADKSSSTAYMQLSSLKYEDSAVYFCSREGYGKGNSMDYWGQGTSVTVSS
VL: DIVMTQSPSSLTVTAGEKVTMNCKSSQSLLNSANQKNYLTWYQQKPGQPPKLLFYWASTRESGVPDRFTGSGSGTDFTLTISSVQAEDLAVYHCQNAYYYPYTFGGGTKLEMK
notes: also called chimeric antibody of 299B2-G33A
B9: ch-299B2-N31Q (antibody, V domains shown)
VH: QVQLKQSGPELVRPGASVKLSCKTSGYIFTNYWIHWVKQRSGQGLEWVVRIYPGTGNTYYNEKFTGKATLTADKSSSTAYMQLSSLKYEDSAVYFCSREGYGKGNSMDYWGQGTSVTVSS
VL: DIVMTQSPSSLTVTAGEKVTMNCKSSQSLLQSGNQKNYLTWYQQKPGQPPKLLFYWASTRESGVPDRFTGSGSGTDFTLTISSVQAEDLAVYHCQNAYYYPYTFGGGTKLEMK
notes: Light chain variable region mutant N31Q of 299B2; also called ch-299B2-X31Q; chimeric antibody of 299B2-N31Q
B10: ch-299B2-S32A (antibody, V domains shown)
VH: QVQLKQSGPELVRPGASVKLSCKTSGYIFTNYWIHWVKQRSGQGLEWVVRIYPGTGNTYYNEKFTGKATLTADKSSSTAYMQLSSLKYEDSAVYFCSREGYGKGNSMDYWGQGTSVTVSS
VL: DIVMTQSPSSLTVTAGEKVTMNCKSSQSLLNAGNQKNYLTWYQQKPGQPPKLLFYWASTRESGVPDRFTGSGSGTDFTLTISSVQAEDLAVYHCQNAYYYPYTFGGGTKLEMK
notes: also called chimeric antibody of 299B2-S32A
B11: ch-253C4-G33A (antibody, V domains shown)
VH: QVQLKQSGAELVRPGASVSLSCKTSGYIFTSYWIHWVKQRSGQGLEWIGRFYPGTGTAYYNENFEGKATLTADRSSSTAYMQLSSLKSDDSAVYFCTREGYGKGNAMDYWGQGTSVTVSS
VL: DIVMTQSPSSLTVTTGEKVTLSCKSSQSLLNSANQKNYLTWYQQKSGQPPELLIYWASTRESGVPDRFTGSGSGTDFTLTVSSVQAEDLAVYYCQNDYYFPFTFGGGTKLEIK
notes: also called chimeric antibody of 253C4-G33A
B12: ch-253C4-N31Q (antibody, V domains shown)
VH: QVQLKQSGAELVRPGASVSLSCKTSGYIFTSYWIHWVKQRSGQGLEWIGRFYPGTGTAYYNENFEGKATLTADRSSSTAYMQLSSLKSDDSAVYFCTREGYGKGNAMDYWGQGTSVTVSS
VL: DIVMTQSPSSLTVTTGEKVTLSCKSSQSLLQSGNQKNYLTWYQQKSGQPPELLIYWASTRESGVPDRFTGSGSGTDFTLTVSSVQAEDLAVYYCQNDYYFPFTFGGGTKLEIK
notes: also called chimeric antibody of 253C4-N31Q
B13: ch-253C4-S32A (antibody, V domains shown)
VH: QVQLKQSGAELVRPGASVSLSCKTSGYIFTSYWIHWVKQRSGQGLEWIGRFYPGTGTAYYNENFEGKATLTADRSSSTAYMQLSSLKSDDSAVYFCTREGYGKGNAMDYWGQGTSVTVSS
VL: DIVMTQSPSSLTVTTGEKVTLSCKSSQSLLNAGNQKNYLTWYQQKSGQPPELLIYWASTRESGVPDRFTGSGSGTDFTLTVSSVQAEDLAVYYCQNDYYFPFTFGGGTKLEIK
notes: also called chimeric antibody of 253C4-S32A

Columns and labels:
[1] = target: T1, human Claudin 18.2 (hCLDN18.2) (human, UniProt P56856-2 1-261); assay: cell-based or functional assay
[2] = target: T1, human Claudin 18.2 (hCLDN18.2); assay: cell-based or functional assay; remark: listed apart in the source
[3] = target: murine CLDN18.2 (mCLDN18.2) (murine) (UniProt P56857); assay: FACS, HEK293-mCLDN18.2 cells
[4] = target: T1, human Claudin 18.2 (hCLDN18.2); assay: FACS, PDX-hCLDN18.2 gastric cancer tumor tissue-derived cells
Source text: (§1) FACS was used to detect the binding of anti-CLDN18.2 chimeric antibodies to HEK293 cells stably transfected expressing hCLDN18.2 (HEK293-hCLDN18.2) and gastric cancer tumor tissue-derived cells naturally expressing hCLDN18.2 (PDX-hCLDN18.2).

[5] = target: T1, human Claudin 18.2 (hCLDN18.2); assay: FACS, HEK293-hCLDN18.2 cells
Source text: as §1

[6] = target: T1, human Claudin 18.2 (hCLDN18.2); assay: cell-based or functional assay; remark: listed apart in the source
[7] = target: T1, human Claudin 18.2 (hCLDN18.2); assay: cell-based or functional assay; remark: listed apart in the source
[8] = target: T1, human Claudin 18.2 (hCLDN18.2); assay: FACS, PDX-hCLDN18.2 gastric cancer tumor tissue-derived cells; remark: listed apart in the source
Procedure: (§2) Using flow cytometry measurement, the mean fluorescence intensity (hereinafter referred to as MFI) for each concentration was calculated by the software, and then the half binding concentration (EC₅₀) and the mean maximum fluorescence intensity (Top MFI) were calculated by GraphPad software, and the results were shown in Table 11.

[9] = target: T1, human Claudin 18.2 (hCLDN18.2); assay: FACS, HEK293-hCLDN18.2 cells; remark: listed apart in the source
Procedure: as §2

[10] = target: T1, human Claudin 18.2 (hCLDN18.2); assay: FACS, HEK293-hCLDN18.2 cells; remark: listed apart in the source
Procedure: Following transient expression in mammalian cell lines, affinity assays were performed using HEK293-hCLDN18.2 cells and monoclonal cell supernatants were screened by FACS.

Binder | ADCC EC50 [1] [µg/mL] | ADCC Maximum lysis (%) [1] [%] | CDC EC50 [2] [µg/mL] | CDC Maximum lysis (%) [2] [%] | EC50 [3] | Mean maximum fluorescence intensity (Top MFI) [3] [MFI] | EC50 [4] [nM] | Mean maximum fluorescence intensity (Top MFI) [4] [MFI] | EC50 [5] [nM] | Mean maximum fluorescence intensity (Top MFI) [5] [MFI] | EC50 [10] [µg/mL] | Mean maximum fluorescence intensity (Top MFI) [10] [MFI] | further results
B1 | 0.047 | 33.5 | 0.124 | 95.5 | 0.758 nM | 13600 | 5.81 | 16300 | 1.52 | 10100 | – | – | –
B2 | 0.027 | 36.6 | 0.099 | 95 | 1.16 nM | 10500 | 4.87 | 15200 | 3.02 | 12200 | – | – | –
B3 | 0.024 | 38.8 | 0.359 | 97.1 | 1.01 nM | 8590 | 96.2 | 19900 | 2.72 | 10800 | – | – | –
B4 | 0.017 | 35.5 | 0.141 | 96.3 | 1.14 nM | 10200 | 16.8 | 17600 | 2.65 | 10900 | – | – | –
B5 | 0.036 | 35.7 | 0.038 | 95.2 | 0.79 nM | 8330 | 9.73 | 15500 | 2.27 | 10300 | – | – | –
B6 | – | – | – | – | 0.201 µg/mL | 88800 | – | – | – | – | – | – | CDC EC50 [6]: 0.125 µg/mL; CDC Maximum lysis (%) [6]: 99.2%; ADCC EC50 [7]: 0.022 µg/mL; ADCC Maximum lysis (%) [7]: 57.9%; EC50 [8]: 29.7 nM; Mean maximum fluorescence intensity (Top MFI) [8]: 25200 MFI; EC50 [9]: 0.407 nM; Mean maximum fluorescence intensity (Top MFI) [9]: 29500 MFI
B7 | 0.023 | 29.4 | 0.091 | 94.7 | 1.22 nM | 11200 | 12.4 | 18100 | 2.41 | 9040 | – | – | –
B8 | – | – | – | – | – | – | – | – | – | – | 0.157 | 6870 | –
B9 | – | – | – | – | – | – | – | – | – | – | – | – | binding result [10]: binds
B10 | – | – | – | – | – | – | – | – | – | – | 1.31 | 6500 | –
B11 | – | – | – | – | – | – | – | – | – | – | 0.187 | 6840 | –
B12 | – | – | – | – | – | – | – | – | – | – | 0.175 | 6560 | –
B13 | – | – | – | – | – | – | – | – | – | – | 0.207 | 6890 | –
